Test results as given in the nanobody polyreactivity screen of Harvey et al. (2022).

Test: yeast display, Sf9 membrane polyspecificity reagent, FACS + sequencing; frameworks hold sequencing errors
In short: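 After 36–48 hours of galactose induction, yeast (Saccharomyces cerevisiae BJ5465) displaying a synthetic nanobody library were stained at 4 °C for 1 hour with 10% biotinylated, detergent-solubilized Sf9 membrane reagent. Streptavidin microbeads enriched the stained cells before FACS sorting into low and high (top ~1%) gates on anti-HA and streptavidin fluorescence. Each clone's polyreactivity label reflects its gate of origin.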

Sequence | polyreactivity (PSR sort gate)
QVQLVESGGGLVQAGGSLRLSCAASGIIFDVYAMGWYRQAPGKEREFVAAITTGGSTNYADSVKGRFTISRDNAKNSVYLQMNSLTPEDTAVYYCNADWDVGYGYWGQGTQVTVSS | low polyreactivity
QVQLVESGGGLVPAGGSLRLSCAASGRIITINAIGWYRKAPGKERELVAAISNSGGRTYADSVKGRFTISRDNAKNTVYLQMNSLKPEDTAVYYCAKRYRFHFWGQGTQVTVSS | low polyreactivity
QVQLVESGGGVVQARGSLRLSCAASGRIFYGYAMGWYRQAPGKERELVAAITRSSSTYYADSVKGRFTISRDNAKNTVYLQMNSLKPEDTAVYYCAAASRRSGASSWYDYWGQGTQVTVSS | high polyreactivity
QVQLVESGVGLVQAGGSLRLSCAASGLTFRYYAMGWYRQAPGKERELVAAITRRGSTYYADSVKGRFTISRDNAKNTVYLQMISLKPEVTAVYYCATVTGFHSSPLRDLDYWGQGTQVTVSS | high polyreactivity
QVQLVESGGGLVQAGGSLRLSFAASGSIFFGNAKGCYRQAPVKERELVAAITRRGGSTYYADSVKGRFTISRDNAKNPVYLQMYSLKAEDTAVYYCNGVSKRYGYGYWGQGTQVTVSS | high polyreactivity
QVQLVESAGGLVQAGGSLRLSCAASGSTFDYYAMGWYRQAPGKERELVAAISRTGGRTYYADSVKGRFTISRDNAKNTVYLQMNSLKPEDTAVYYCATRNGRQYSVSYRYYYWGQGTQVTVSS | low polyreactivity
QVQLVESGGGLVQAGGSLRLSCAASGFTFPRYAMGWYRQAPGKERELVAAITVGGGRTYYADSVKGRFTISRDNANNTVYLQMNSLKPEDTAVYYFAADSHASTYDYWGQGTQVTVSS | low polyreactivity
QVQLVESGGGLVQAGGSLRLTCAASGLIFGSNAMRWYRKAPGKERELVAGISGSGEHYVLRRSVKGRFTISRDNAKNTVYVQMNSLKPEDTAVYYCATYSQSSKGPAGYDYWGQGTHVTVSS | high polyreactivity
QVQLVESGGGLVQAGGSLRLSCAASGFIFRYYAMGWYRQAPGKERVLVARITPRGGRTYYADSVKGRFTISRDNAKNTVYLQMNSLKPEDTAVYYCAAVYPVLHEFGYWGQGTQVTVSS | high polyreactivity
QVQLVESGGGLVQAGGSLRLSCAASGRIFTYYAMGWYRQAPGKERELVAAITWSGTGTYYADSVKGRFTISRDNAKNTVYLQMNSLKPEDTAVYYCNRRHALASSYYYWGQGTQVTVSS | low polyreactivity
QVQLVESGGGLVQAGGSLRLICAASGRIFRANAMGWYRQAPGQERELVATITISGGSTYYADSVKGRFTISRDNAKNTVYLQMNCLKPEDTAVYYCNAGHTLTFVPRPAYYSMYYWGQGTQVTVSS | low polyreactivity
QVQLVESGGGLVQAGGSLRLSCAASGFIFVAYALGWYRPAPGKERELVAAITSSGVTTYYADSVKGRFTISRDNAKNTVYLQMTSLKQDDTAVYFCAAYRRRSPFDYWGQGTQVTVSS | high polyreactivity
QVQLVESGGGLVQAGGSLRISCAASGRIFSYNDMGWYRPAPGKERELVAAITGGGSTNYADSVKGRFTISRDNAKNTVYLQMNSLKPEDTAVYYCAARSWSDKYWGQGTQVTVSS | high polyreactivity
QVQLVESGGGLVQAGGSLRLSCAASGRIFWYYAMGWYRQAPGKERELVAAITRGGITTYADSVKGRYTISRDNAKNTVYLQMNSLKPEDTAVYYCNAVPWYGRMDYWGQGTQVTVSS | low polyreactivity
QVQLVESGGGIVQAGGSLRLSCDASGSIFNYYTMGWYRQEPGKERELVAAISYRGGRTYYADSVKGRFTISRDNAKNTVYLQMNSLKPEDTAVYYCAAGWLLYVFFPREYYYWGQGTQVTVSS | high polyreactivity
QVQLVDSGGGLVQAGGSLRLSCAASGFIFRYYAMGWNRQATGKERELVAAISWSTDNTYYADSVKGRFTILRDNAKNTVYLQMNSLKPEDTAVYYCAADEGWYGPKLDYWGQGTQVTVSS | low polyreactivity
QVQLVESGGGLVQAGGSLRLSCAASGRTFHRNAMGWYRQAPGKERELVAAITGDGRTNYADSVKGRFTISRDNAKNTVYLQMNSLKPEDTAVYYCNRDNDYYRPGGRPVGIFDYWGQGTQVTVSS | low polyreactivity
